One may read the stoichiometry N as the number of molecules, sites or subunits per partner or assembly.

Residue numbers refer to the chain shown, from its start.

This note sets out measurements from publication PMC8113463, “Structural visualization of transcription activated by a multidrug-sensing MerR family regulator” (Nature Communications, 2021).

The target in one data set is T1, EcmrR (full length) (Escherichia coli, UniProt A0A8I3B051).
T1 construct: E. coli BL21 Star (DE3); codon-optimised gene; homodimer on promoter DNA with E. coli RNAP-sigma70
The format is binding. The following applies: second site (site II) in CTD; TPSb+ in site I; 8 mM CHAPSO added before grid preparation; density of the sterol head, relevance of the site left open by the authors.

The next data set deals with T2, EcmrR CTD (Escherichia coli, UniProt A0A8I3B051).
T2 construct: E. coli BL21 Star (DE3)
Nature of the data set: X-ray crystal structure, […] Å. In kind it is binding. The note with it: sites I and II both occupied; detergent of the crystallisation solution, 5 mM.

Data set [1] addresses EcmrR (multidrug-sensing MerR family transcriptional regulator of Escherichia coli), full length, wild type (Escherichia coli). Nature of the data set: cryo-EM structure.
For data set [2], the target named is T3, EcmrR (UniProt PDB:6XLK_3 1-268).
T3 sequence: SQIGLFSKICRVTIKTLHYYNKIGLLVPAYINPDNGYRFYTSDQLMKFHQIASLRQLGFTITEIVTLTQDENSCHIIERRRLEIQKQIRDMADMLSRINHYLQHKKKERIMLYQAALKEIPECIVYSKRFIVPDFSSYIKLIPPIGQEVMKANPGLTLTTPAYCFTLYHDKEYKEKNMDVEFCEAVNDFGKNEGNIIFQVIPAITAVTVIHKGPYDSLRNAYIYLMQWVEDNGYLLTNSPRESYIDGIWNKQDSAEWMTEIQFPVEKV
Nature of the data set: cryo-EM (focused map of spacer DNA subcomplex within RPo); TPSb+, CHAPSO; RNAP present in the particle; Complex assembly: core RNAP:σ70:EcmrR-promoter 1:1.4:2, 5 mM MgCl2, 5 mM TPSb+ Br-, 23 °C 3 h, then (initial transcribing complexes) rNTPs 37 °C 10 min; SEC purified; DNA in 20 mM Tris-HCl pH 7.5, 100 mM KCl, 1 mM TCEP; final SEC buffer not given. The following applies: protein: recombinant; tags: expressed as N-terminal His6-Smt3 fusion; chain copies: 2; pre-melted bubble from non-complementary strand segments, blunt ends.

Data set [3] addresses T3, EcmrR. Nature of the data set: cryo-EM (focused map of spacer DNA subcomplex within RPitc-4nt); TPSb+, CHAPSO; RNAP present in the particle; Complex assembly: core RNAP:σ70:EcmrR-promoter 1:1.4:2, 5 mM MgCl2, 5 mM TPSb+ Br-, 23 °C 3 h, then (initial transcribing complexes) rNTPs 37 °C 10 min; SEC purified; DNA in 20 mM Tris-HCl pH 7.5, 100 mM KCl, 1 mM TCEP; final SEC buffer not given. The note with it: protein: recombinant; tags: expressed as N-terminal His6-Smt3 fusion; chain copies: 2; blunt.

Turning to `C[C@H](CCC(=O)NCCC[N+](C)(C)CC(O)CS(=O)(=O)[O-])[C@H]1CC[C@H]2[C@@H]3[C@H](O)C[C@@H]4C[C@H](O)CC[C@]4(C)[C@H]3C[C@H](O)[C@]12C` (some centres unmarked) [CHAPSO, 3-([3-cholamidopropyl]dimethylammonio)-2-hydroxy-1-propanesulfonate], the “cryo-EM structure of the complex” value at EcmrR (full length) is “The density likely corresponds to the tetracyclic sterol head of CHAPSO”.

On to `CCCCCCCCCCCCCCCC[N+](C)(C)C` [CTA^+], for which the “X-ray crystal structure, 1.4 Å” value on EcmrR CTD is given as “wherein both sites are occupied by cetyltrimethylammonium cation (CTA^+)”.

The molecule “EcmrR (multidrug-sensing MerR family transcriptional regulator of Escherichia coli), full length, wild type (natural protein)” came in with a stoichiometry N in data set [1] of 2.

B1: 54-bp heteroduplex promoter scaffold, 19-bp spacer (NT strand DNA-1 / T strand DNA-1) (dsDNA)
DNA 1: GCCTTGACCCTCCCCTAAGGGGAGGGTTTAGATTGTGTGCAGTCTGACGCGGCG
DNA 2: CGCCGCGTCAGACTCGTAGGAATCTAAACCCTCCCCTTAGGGGAGGGTCAAGGC
For the molecule B1, the binding result in the data set with EcmrR [2] is on record as “binds”.

B2: 54-bp fully complementary promoter scaffold, 19-bp spacer (NT strand DNA-1 / T strand DNA-2) (dsDNA)
DNA 1: B1 DNA 1
DNA 2: B1 DNA 2 with C15G, G16C, T17A, A18C, G19A, G20C
As to B2, in the data set with EcmrR [3], the binding result was “binds”.
